Measured values as given in publication PMC4575918, “Regulation of p53 oligomerization by Ras superfamily protein RBEL1A” (Genes & Cancer, 2015).

What was measured:
[1] = target: T1, purified recombinant full-length RBEL1A (UniProt Q3YEC7-1 1-729, purification (1): glycosylated (larger molecular mass); purification (2): unglycosylated or less glycosylated); assay: cross-linking; purified p53 (315-360) incubated with purified RBEL1A or BSA (1:1 or 2:1 molar ratio) 1 hour at 4 C, then glutaraldehyde 5 minutes at 4 C; SDS-PAGE, anti-p53 (FL-393) blot; conditions: both partners purified
T1 construct: RBEL1A, Ras superfamily GTPase, full length; also called recombinant RBEL1A; RBEL1A (1); source: purified recombinant protein
T1 sequence (looked up): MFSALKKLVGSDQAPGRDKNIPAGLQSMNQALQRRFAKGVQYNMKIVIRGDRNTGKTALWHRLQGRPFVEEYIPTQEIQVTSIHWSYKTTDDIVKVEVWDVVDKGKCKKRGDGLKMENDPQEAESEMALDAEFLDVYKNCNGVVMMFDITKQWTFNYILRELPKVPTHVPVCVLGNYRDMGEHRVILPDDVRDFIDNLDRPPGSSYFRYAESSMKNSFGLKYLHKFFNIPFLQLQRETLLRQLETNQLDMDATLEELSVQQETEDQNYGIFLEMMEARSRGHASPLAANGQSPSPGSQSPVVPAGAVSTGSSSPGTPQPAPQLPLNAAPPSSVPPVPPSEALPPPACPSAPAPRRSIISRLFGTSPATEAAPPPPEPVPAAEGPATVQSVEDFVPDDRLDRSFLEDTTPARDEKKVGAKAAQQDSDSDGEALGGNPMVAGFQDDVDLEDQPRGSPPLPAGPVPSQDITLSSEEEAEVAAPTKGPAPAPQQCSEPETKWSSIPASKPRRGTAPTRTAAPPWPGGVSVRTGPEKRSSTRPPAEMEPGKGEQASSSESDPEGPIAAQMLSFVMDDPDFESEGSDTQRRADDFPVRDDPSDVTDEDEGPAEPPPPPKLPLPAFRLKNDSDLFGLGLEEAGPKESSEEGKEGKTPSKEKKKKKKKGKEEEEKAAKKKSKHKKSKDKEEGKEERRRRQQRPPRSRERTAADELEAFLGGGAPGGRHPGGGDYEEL

[2] = target: the molecule itself; assay: as above

B1: purified recombinant p53 tetramerization domain (residues 315-360) (domain or fragment, UniProt P04637 315-360, looked up)
chain: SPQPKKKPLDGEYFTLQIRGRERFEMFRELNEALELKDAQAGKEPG
notes: p53 tumor suppressor, residues 315-360 (tetramerization domain); also called p53-Oligo-D; recombinant p53 (315-360); source: purified recombinant polypeptide
Does B1 bind [1]?
Result: binds

What about the “stoichiometry N” value [2] of the same binder?
The value was 4.
